According to patent US20120219562A1 (AbbVie / Abbott, published 2012):
Where a chain is given by its changes, count along the chain named. Numbers in names are those of the source. Where “and” joins values, the source holds several entries; their conditions need not be identical. Equal values may be shown once. Each block holds one binder with its values, some of them ahead of it.

Experiments:
[1] = molecular target: T1, human interleukin 12 (human, UniProt P29459 23-219; P29460 23-328); assay: RB assay (IL-12 receptor binding)
T1 construct: heterodimer of p35 and p40 linked by a disulfide bridge; also called hIL-12; IL-12
T1 sequence (looked up) 1: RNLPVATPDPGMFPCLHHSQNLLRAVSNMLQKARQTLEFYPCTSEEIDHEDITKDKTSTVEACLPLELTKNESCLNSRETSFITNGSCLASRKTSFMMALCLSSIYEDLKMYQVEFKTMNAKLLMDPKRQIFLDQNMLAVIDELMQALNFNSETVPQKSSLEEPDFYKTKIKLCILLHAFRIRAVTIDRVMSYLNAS
T1 sequence (looked up) 2: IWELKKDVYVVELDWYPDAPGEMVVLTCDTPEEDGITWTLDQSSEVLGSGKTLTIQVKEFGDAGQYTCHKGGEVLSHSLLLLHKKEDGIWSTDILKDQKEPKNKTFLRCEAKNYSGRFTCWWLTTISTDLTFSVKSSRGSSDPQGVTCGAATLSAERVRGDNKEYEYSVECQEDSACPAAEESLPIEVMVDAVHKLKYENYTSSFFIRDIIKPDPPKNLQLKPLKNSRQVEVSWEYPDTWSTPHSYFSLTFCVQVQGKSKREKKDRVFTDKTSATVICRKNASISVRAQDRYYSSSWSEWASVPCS

[2] = molecular target: T1, human interleukin 12; assay: cell-based or functional assay
[3] = molecular target: T1, human interleukin 12; assay: SPR (BIAcore)
[4] = molecular target: T2, human interleukin 12 (recombinant human IL-12, p70 heterodimer) (human, UniProt P29459 23-219; P29460 23-328); assay: SPR (BIAcore), off-rate from human IL-12
T2 construct: p35 and p40 linked by a disulfide bridge; also called hIL-12; rh IL-12
T2 sequence (looked up) 1: T1 sequence (looked up) 1
T2 sequence (looked up) 2: T1 sequence (looked up) 2

[5] = molecular target: T2, human interleukin 12 (recombinant human …); assay: cell-based or functional assay
[6] = molecular target: T2, human interleukin 12 (recombinant human …); assay: cell-based or functional assay; remark: listed apart in the source
[7] = molecular target: T3, human interleukin 12 (p70 heterodimer of p35 and p40) (human, UniProt P29459 23-219; P29460 23-328); assay: SPR (BIAcore), off-rate
T3 construct: Recombinant human IL-12; also called hIL-12; IL-12
T3 sequence (looked up) 1: T1 sequence (looked up) 1
T3 sequence (looked up) 2: T1 sequence (looked up) 2

[8] = molecular target: T3, human interleukin 12 (p70 heterodimer …); assay: SPR (BIAcore), off-rate; remark: listed apart in the source
[9] = molecular target: T3, human interleukin 12 (p70 heterodimer …); assay: SPR (BIAcore), off-rate; remark: listed apart in the source
[10] = molecular target: T3, human interleukin 12 (p70 heterodimer …); assay: SPR (BIAcore), off-rate; remark: listed apart in the source
[11] = molecular target: T3, human interleukin 12 (p70 heterodimer …); assay: SPR (BIAcore), off-rate; remark: listed apart in the source
[12] = molecular target: T3, human interleukin 12 (p70 heterodimer …); assay: SPR (BIAcore), off-rate; remark: listed apart in the source
[13] = molecular target: T3, human interleukin 12 (p70 heterodimer …); assay: SPR (BIAcore), off-rate; remark: listed apart in the source
[14] = molecular target: T3, human interleukin 12 (p70 heterodimer …); assay: surface plasmon resonance (BIAcore)

IC50 [1]: 0.3 nM | PHA assay IC50 [2]: 100 nM | koff [3]: 0.0011 s⁻¹
B1: 136-14 (antibody, V domains shown)
VH: QVQLVQSGGGVVQPGRSLRLSCAASGFTFSSYGMHWVRQAPGKGLEWVAFIRYDGSNKYYADSVKGRFTISRDNSKNTLYLQMKSLRAEDTAVYYCTTHGSHDNWGQGTMVTVSS
VL: SYVLTQPPSVSGTPGQRVTISCSGGRSNIGSNTVKWYQQLPGTAPKLLIYGNDQRPSGVPDRFSGSKSGTSASLAITGVQAEDEADYYCQTYDRGFTGSRVFGTGTKVTVL

IC50 [1]: 2 nM | PHA assay IC50 [2]: 7 nM | koff [3]: 2.9e-05 s⁻¹
B2: 136-17 (antibody, V domains shown)
VH: B1 VH
VL: B1 VL with T91S, R94W, G95N

IC50 [1]: > 10 nM | koff [3]: 0.00271 s⁻¹
B3: 73-C1 (antibody, V domains shown)
VH: B1 VH with H99S, H102Y, N104Y
VL: SYVLTQPPSVSGTPGQRVTISCSGGRSNIGSNTVKWYQQLPGTAPKLLIYGNDQRPSGVPDRFSGSKSGTSASLAITGVQAEDEADYYCHSYDSRFTGSRVFGTGTKVTVLG

IC50 [1]: 0.3 nM | PHA assay IC50 [2]: 5 nM | koff [3]: 0.00061 s⁻¹
B4: 136-16 (antibody, V domains shown)
VH: B1 VH
VL: B1 VL with T91S, G95R

IC50 [1]: > 10 nM | koff [3]: 0.00251 s⁻¹
B5: 73-B6 (antibody, V domains shown)
VH: B1 VH with H99S, H102Y, N104Y
VL: B3 VL with S94N

koff [4]: 0.00015 s⁻¹ | PHA assay IC50 (M) p70:p40 1:0 [5]: 1.8e-10 M | PHA assay IC50 (M) p70:p40 1:50 [5]: 1.8e-10 M | PHA assay IC50 [6]: 0.13 nM
B6: Y61 IgG (antibody, V domains shown)
VH: B1 VH with T97K
VL: B3 VL with H90Q, S94R, R95G, F96T, T97H, G98P, S99A, R100L, V101L
notes: IgG

koff [7]: 0.000204 s⁻¹ and 0.000206 s⁻¹ and 0.000151 s⁻¹ and 0.000178 s⁻¹ | koff [8]: 0.000211 s⁻¹ and 0.000229 s⁻¹ and 0.000241 s⁻¹ | koff [9]: 0.00031 s⁻¹ and 0.000385 s⁻¹ | koff [10]: 0.000397 s⁻¹ and 0.000375 s⁻¹ and 0.000255 s⁻¹ and 0.000143 s⁻¹ | koff [11]: 0.000215 s⁻¹ and 0.000297 s⁻¹ | koff [12]: 0.000168 s⁻¹ and 0.000337 s⁻¹ and 0.000178 s⁻¹ | koff [13]: 0.000403 s⁻¹ | koff [14]: ~0.0002 s⁻¹
B7: Y61 human anti-hIL-12 antibody (antibody, V domains shown)
VH: B1 VH with T97K
VL: B3 VL with H90Q, S94R, R95G, F96T, T97H, G98P, S99A, R100L, V101L

IC50 [1]: 0.4 nM
B8: 136-15M1 (antibody, V domains shown)
VH: B1 VH with T97A, T98K
VL: B3 VL with H90Q, S94R, R95G

IC50 [1]: > 10 nM | koff [3]: 0.00325 s⁻¹
B9: 73-B1 (antibody, V domains shown)
VH: B1 VH with H99S, H102Y, N104Y
VL: B3 VL with R95D

IC50 [1]: 2 nM | koff [3]: 0.0014 s⁻¹
B10: 136-10 (antibody, V domains shown)
VH: B1 VH with N104D
VL: B1 VL with T91S

IC50 [1]: 2 nM | koff [3]: 0.00042 s⁻¹
B11: 136-21 (antibody, V domains shown)
VH: B1 VH
VL: B1 VL with T91S, R94N

PHA assay IC50 (M) p70:p40 1:0 [5]: 2e-09 M
B12: 136-15 (antibody, V domains shown)
VH: B1 VH with T97K
VL: B3 VL with G25S, H90Q, S91T, S94K, R95G, R100S

koff [4]: 6.98e-05 s⁻¹ | IFN gamma IC50 [6]: 0.03 nM | PHA assay IC50 [6]: 0.02 nM
B13: Y61-L50Y* IgG (antibody, V domains shown)
VH: B1 VH with T97K
VL: QSVLTQPPSVSGAPGQRVTISCSGSRSNIGSNTVKWYQQLPGTAPKLLIYYNDQRPSGVPDRFSGSKSGTSASLAITGLQAEDEADYYCQSYDRGTHPALLFGTGTKVTVL

koff [11]: 0.000733 s⁻¹
B14: SEQ ID NO: 527 (Y61, Y at L53) (antibody, V domains shown)
VH: B1 VH with T97K
VL: B3 VL with Q54Y, H90Q, S94R, R95G, F96T, T97H, G98P, S99A, R100L, V101L

koff [11]: 0.0348 s⁻¹
B15: SEQ ID NO: 525 (Y61, F at L50) (antibody, V domains shown)
VH: B1 VH with T97K
VL: B3 VL with G51F, H90Q, S94R, R95G, F96T, T97H, G98P, S99A, R100L, V101L

koff [11]: 0.000855 s⁻¹
B16: SEQ ID NO: 532 (Y61, I at L53) (antibody, V domains shown)
VH: B1 VH with T97K
VL: B3 VL with Q54I, H90Q, S94R, R95G, F96T, T97H, G98P, S99A, R100L, V101L

koff [11]: 0.000974 s⁻¹
B17: SEQ ID NO: 533 (Y61, P at L53) (antibody, V domains shown)
VH: B1 VH with T97K
VL: B3 VL with Q54P, H90Q, S94R, R95G, F96T, T97H, G98P, S99A, R100L, V101L

koff [11]: 0.000834 s⁻¹
B18: SEQ ID NO: 530 (Y61, T at L53) (antibody, V domains shown)
VH: B1 VH with T97K
VL: B3 VL with Q54T, H90Q, S94R, R95G, F96T, T97H, G98P, S99A, R100L, V101L

koff [11]: 0.000382 s⁻¹
B19: SEQ ID NO: 524 (Y61, W at L50) (antibody, V domains shown)
VH: B1 VH with T97K
VL: B3 VL with G51W, H90Q, S94R, R95G, F96T, T97H, G98P, S99A, R100L, V101L

koff [4]: 5.14e-05 s⁻¹
B20: J695 (Y61-L94Y-L50Y IgG*) (antibody, V domains shown)
VH: B1 VH with Q6E, K84N, T97K
VL: QSVLTQPPSVSGAPGQRVTISCSGSRSNIGSNTVKWYQQLPGTAPKLLIYYNDQRPSGVPDRFSGSKSGTSASLAITGLQAEDEADYYCQSYDRYTHPALLFGTGTKVTVLG
notes: also called ABT-874

koff [11]: 0.00041 s⁻¹
B21: SEQ ID NO: 523 (Y61, P at L50) (antibody, V domains shown)
VH: B1 VH with T97K
VL: B20 VL with Q1S, S2Y, A13T, S25G, Y51P, L79V, Y95G

koff [11]: 0.000554 s⁻¹
B22: SEQ ID NO: 531 (Y61, A at L53) (antibody, V domains shown)
VH: B1 VH with T97K
VL: B20 VL with Q1S, S2Y, A13T, S25G, Y51G, Q54A, L79V, Y95G

koff [11]: 0.000866 s⁻¹
B23: SEQ ID NO: 526 (Y61, S at L53) (antibody, V domains shown)
VH: B1 VH with T97K
VL: B20 VL with Q1S, S2Y, A13T, S25G, Y51G, Q54S, L79V, Y95G

koff [11]: 0.0012 s⁻¹
B24: SEQ ID NO: 522 (Y61, I at L50) (antibody, V domains shown)
VH: B1 VH with T97K
VL: B20 VL with Q1S, S2Y, A13T, S25G, Y51I, L79V, Y95G

koff [11]: 0.000614 s⁻¹
B25: SEQ ID NO: 528 (Y61, R at L53) (antibody, V domains shown)
VH: B1 VH with T97K
VL: B20 VL with Q1S, S2Y, A13T, S25G, Y51G, Q54R, L79V, Y95G

PHA assay IC50 [2]: 500 nM
B26: Joe9 wt IgG1 (antibody, V domains shown)
VH: not shown
VL: SYVLTQPPSVSGTPGQRVTISCSGGRSNIGSNTVKWYQQLPGTAPKLLIYGNDQRPSGVPDRFSGSKSGTSASLAITGVQAEDEADYYCQSYDSSLRG
